T1: mouse FcγRIII (mouse, UniProt P08508 31-215)
T1 construct: Extracellular domain with C-terminal His tag; also called mFcγRIII; mFcgRIII
T1 chain: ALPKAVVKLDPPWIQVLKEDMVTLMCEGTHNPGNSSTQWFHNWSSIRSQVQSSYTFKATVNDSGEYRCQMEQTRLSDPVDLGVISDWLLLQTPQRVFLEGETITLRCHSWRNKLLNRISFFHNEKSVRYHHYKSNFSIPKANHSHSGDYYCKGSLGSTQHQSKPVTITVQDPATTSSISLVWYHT

T2: mouse FcγRII (mouse, UniProt P08101 30-210)
T2 construct: Extracellular domain with C-terminal His tag; also called mFcγRII; mFcgRII
T2 sequence: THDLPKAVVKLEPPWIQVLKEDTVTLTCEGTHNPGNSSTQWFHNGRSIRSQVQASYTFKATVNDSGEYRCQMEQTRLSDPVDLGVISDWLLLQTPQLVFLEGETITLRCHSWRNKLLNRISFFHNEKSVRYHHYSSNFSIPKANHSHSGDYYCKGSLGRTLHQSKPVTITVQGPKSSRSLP


What was measured:
mouse FcγRIII [1] = target: T1, mouse FcγRIII; assay: SPR (Biacore T200); KD of H237-mIgG1/MRAL-k0 / KD of variant
mouse FcγRII [2] = target: T2, mouse FcγRII; assay: as above
mouse FcγRIII [3] = target: T1, mouse FcγRIII; assay: SPR (Biacore T200); KD of H237-MB630/MRAL-k0 / KD of variant
mouse FcγRII [4] = target: T2, mouse FcγRII; assay: as above

| relative mFcγRIII-binding activity (mIgG1 = 1) (mouse FcγRIII [1]) [fold] | relative mFcγRII-binding activity (mIgG1 = 1) (mouse FcγRII [2]) [fold] | Relative mFcγRIII-binding activity (MB630 = 1) (mouse FcγRIII [3]) [fold] | Relative mFcγRII-binding activity (MB630 = 1) (mouse FcγRII [4]) [fold] | Binder |
| --- | --- | --- | --- | --- |
| 1.14 | 36.2 | 6.21 | 3.41 | MB855 (antibody, mouse IgG1, kappa, CH name; VH H237 + CH, L chain MRAL-k0; copies: 2 + 2) heavy: QVQLQESGPGLVKPSETLSLTCAVSGHSISHDHAWSWVRQPPGEGLEWIGFISYSGITNYNPSLQGRVTISRDNSKNTLYLQMNSLRAEDTAVYYCARSLARTTAMDYWGEGTLVTVSSAKTTPPSVYPLAPGSAAQTNSMVTLGCLVKGYFPEPVTVTWNSGSLSSGVHTFPAVLQSDLYTLSSSVTVPSSTWPSETVTCNVAHPASSTKVDKKIVPRDCGCKPCICEPNEVELVFIFPPKPKDVLTITLTPKVTCVVVDISKDDPEVQFSWFVDDVEVHTAQTQPREELFNSTFRSVSELPIMHQDWLNGKEFKCRVNSDGFPAPIERTISKTKGRPKAPQVYTIPPPKEQMAKDKVSLTCMITDFFPEDITVEWQWNGQPAENYKNTQPIMDTDGSYFVYSKLNVQKSNWEAGNTFTCSVLHEGLHNHHTEKSLSHSPGK light: not shown |
| 0.9 | 44.6 | 4.92 | 4.21 | MB857 (antibody, mouse IgG1, kappa, CH name; VH H237 + CH, L chain MRAL-k0; copies: 2 + 2) heavy: QVQLQESGPGLVKPSETLSLTCAVSGHSISHDHAWSWVRQPPGEGLEWIGFISYSGITNYNPSLQGRVTISRDNSKNTLYLQMNSLRAEDTAVYYCARSLARTTAMDYWGEGTLVTVSSAKTTPPSVYPLAPGSAAQTNSMVTLGCLVKGYFPEPVTVTWNSGSLSSGVHTFPAVLQSDLYTLSSSVTVPSSTWPSETVTCNVAHPASSTKVDKKIVPRDCGCKPCICEPNEVELVFIFPPKPKDVLTITLTPKVTCVVVDISKDDPEVQFSWFVDDVEVHTAQTQPREEQFNSTFRSVSELPIMHQDWLNGKEFKCRVDSDGFPAPIYKTISKTKGRPKAPQVYTIPPPKEQMAKDKVSLTCMITDFFPEDITVEWQWNGQPAENYKNTQPIMDTDGSYFVYSKLNVQKSNWEAGNTFTCSVLHEGLHNHHTEKSLSHSPGK light: not shown |
| 1.98 | 67.9 | 10.8 | 6.41 | MB862 (antibody, mouse IgG1, kappa, CH name; VH H237 + CH, L chain MRAL-k0; copies: 2 + 2) heavy: QVQLQESGPGLVKPSETLSLTCAVSGHSISHDHAWSWVRQPPGEGLEWIGFISYSGITNYNPSLQGRVTISRDNSKNTLYLQMNSLRAEDTAVYYCARSLARTTAMDYWGEGTLVTVSSAKTTPPSVYPLAPGSAAQTNSMVTLGCLVKGYFPEPVTVTWNSGSLSSGVHTFPAVLQSDLYTLSSSVTVPSSTWPSETVTCNVAHPASSTKVDKKIVPRDCGCKPCICEPNEVELVFIFPPKPKDVLTITLTPKVTCVVVDISDDDPEVQFSWFVDDVEVHTAQTQPREEQFNSTFRSVSELPIMHQDWLNGKEFKCRVNSDGFPAYIEKTISKTKGRPKAPQVYTIPPPKEQMAKDKVSLTCMITDFFPEDITVEWQWNGQPAENYKNTQPIMDTDGSYFVYSKLNVQKSNWEAGNTFTCSVLHEGLHNHHTEKSLSHSPGK light: not shown |
| 0.71 | 34.2 | 3.9 | 3.22 | MB859 (antibody, mouse IgG1, kappa, CH name; VH H237 + CH, L chain MRAL-k0; copies: 2 + 2) heavy: QVQLQESGPGLVKPSETLSLTCAVSGHSISHDHAWSWVRQPPGEGLEWIGFISYSGITNYNPSLQGRVTISRDNSKNTLYLQMNSLRAEDTAVYYCARSLARTTAMDYWGEGTLVTVSSAKTTPPSVYPLAPGSAAQTNSMVTLGCLVKGYFPEPVTVTWNSGSLSSGVHTFPAVLQSDLYTLSSSVTVPSSTWPSETVTCNVAHPASSTKVDKKIVPRDCGCKPCICEPNEVELVFIFPPKPKDVLTITLTPKVTCVVVDISKDDPEVQFSWFVDDVEVHTAQTQPREEQFNSTFRSVSELPIMHQDWLNGKEFKCRVNSDGFPAYIERTISKTKGRPKAPQVYTIPPPKEQMAKDKVSLTCMITDFFPEDITVEWQWNGQPAENYKNTQPIMDTDGSYFVYSKLNVQKSNWEAGNTFTCSVLHEGLHNHHTEKSLSHSPGK light: not shown |
| 0.91 | 44.8 | 4.95 | 4.23 | MB856 (antibody, mouse IgG1, kappa, CH name; VH H237 + CH, L chain MRAL-k0; copies: 2 + 2) heavy: QVQLQESGPGLVKPSETLSLTCAVSGHSISHDHAWSWVRQPPGEGLEWIGFISYSGITNYNPSLQGRVTISRDNSKNTLYLQMNSLRAEDTAVYYCARSLARTTAMDYWGEGTLVTVSSAKTTPPSVYPLAPGSAAQTNSMVTLGCLVKGYFPEPVTVTWNSGSLSSGVHTFPAVLQSDLYTLSSSVTVPSSTWPSETVTCNVAHPASSTKVDKKIVPRDCGCKPCICEPNEVELVFIFPPKPKDVLTITLTPKVTCVVVDISKDDPEVQFSWFVDDVEVHTAQTQPREEQFNSTFRSVSELPIMHQDWLNGKEFKCRVDSDGFPAYIEKTISKTKGRPKAPQVYTIPPPKEQMAKDKVSLTCMITDFFPEDITVEWQWNGQPAENYKNTQPIMDTDGSYFVYSKLNVQKSNWEAGNTFTCSVLHEGLHNHHTEKSLSHSPGK light: not shown |
| 1.27 | 62 | 6.92 | 5.86 | MB858 (antibody, mouse IgG1, kappa, CH name; VH H237 + CH, L chain MRAL-k0; copies: 2 + 2) heavy: QVQLQESGPGLVKPSETLSLTCAVSGHSISHDHAWSWVRQPPGEGLEWIGFISYSGITNYNPSLQGRVTISRDNSKNTLYLQMNSLRAEDTAVYYCARSLARTTAMDYWGEGTLVTVSSAKTTPPSVYPLAPGSAAQTNSMVTLGCLVKGYFPEPVTVTWNSGSLSSGVHTFPAVLQSDLYTLSSSVTVPSSTWPSETVTCNVAHPASSTKVDKKIVPRDCGCKPCICEPNEVELVFIFPPKPKDVLTITLTPKVTCVVVDISKDDPEVQFSWFVDDVEVHTAQTQPREEQFNSTFRSVSELPIMHQDWLNGKEFKCRVDSDGFPAPIERTISKTKGRPKAPQVYTIPPPKEQMAKDKVSLTCMITDFFPEDITVEWQWNGQPAENYKNTQPIMDTDGSYFVYSKLNVQKSNWEAGNTFTCSVLHEGLHNHHTEKSLSHSPGK light: not shown |
| 0.75 | 39.6 | 4.07 | 3.74 | MB860 (antibody, mouse IgG1, kappa, CH name; VH H237 + CH, L chain MRAL-k0; copies: 2 + 2) heavy: QVQLQESGPGLVKPSETLSLTCAVSGHSISHDHAWSWVRQPPGEGLEWIGFISYSGITNYNPSLQGRVTISRDNSKNTLYLQMNSLRAEDTAVYYCARSLARTTAMDYWGEGTLVTVSSAKTTPPSVYPLAPGSAAQTNSMVTLGCLVKGYFPEPVTVTWNSGSLSSGVHTFPAVLQSDLYTLSSSVTVPSSTWPSETVTCNVAHPASSTKVDKKIVPRDCGCKPCICEPNEVELVFIFPPKPKDVLTITLTPKVTCVVVDISKDDPEVQFSWFVDDVEVHTAQTQPREEQFNSTFRSVSELPIMHQDWLNGKEFKCRVNSDGFPAPIYRTISKTKGRPKAPQVYTIPPPKEQMAKDKVSLTCMITDFFPEDITVEWQWNGQPAENYKNTQPIMDTDGSYFVYSKLNVQKSNWEAGNTFTCSVLHEGLHNHHTEKSLSHSPGK light: not shown |
| 2.33 | 81.3 | 12.7 | 7.68 | MB863 (antibody, mouse IgG1, kappa, CH name; VH H237 + CH, L chain MRAL-k0; copies: 2 + 2) heavy: QVQLQESGPGLVKPSETLSLTCAVSGHSISHDHAWSWVRQPPGEGLEWIGFISYSGITNYNPSLQGRVTISRDNSKNTLYLQMNSLRAEDTAVYYCARSLARTTAMDYWGEGTLVTVSSAKTTPPSVYPLAPGSAAQTNSMVTLGCLVKGYFPEPVTVTWNSGSLSSGVHTFPAVLQSDLYTLSSSVTVPSSTWPSETVTCNVAHPASSTKVDKKIVPRDCGCKPCICEPNEVELVFIFPPKPKDVLTITLTPKVTCVVVDISDDDPEVQFSWFVDDVEVHTAQTQPREEQFNSTFRSVSELPIMHQDWLNGKEFKCRVNSDGFPAPIYKTISKTKGRPKAPQVYTIPPPKEQMAKDKVSLTCMITDFFPEDITVEWQWNGQPAENYKNTQPIMDTDGSYFVYSKLNVQKSNWEAGNTFTCSVLHEGLHNHHTEKSLSHSPGK light: not shown |
| 2.41 | 76.8 | 13.2 | 7.25 | MB861 (antibody, mouse IgG1, kappa, CH name; VH H237 + CH, L chain MRAL-k0; copies: 2 + 2) heavy: QVQLQESGPGLVKPSETLSLTCAVSGHSISHDHAWSWVRQPPGEGLEWIGFISYSGITNYNPSLQGRVTISRDNSKNTLYLQMNSLRAEDTAVYYCARSLARTTAMDYWGEGTLVTVSSAKTTPPSVYPLAPGSAAQTNSMVTLGCLVKGYFPEPVTVTWNSGSLSSGVHTFPAVLQSDLYTLSSSVTVPSSTWPSETVTCNVAHPASSTKVDKKIVPRDCGCKPCICEPNEVELVFIFPPKPKDVLTITLTPKVTCVVVDISDDDPEVQFSWFVDDVEVHTAQTQPREEQFNSTFRSVSELPIMHQDWLNGKEFKCRVDSDGFPAPIEKTISKTKGRPKAPQVYTIPPPKEQMAKDKVSLTCMITDFFPEDITVEWQWNGQPAENYKNTQPIMDTDGSYFVYSKLNVQKSNWEAGNTFTCSVLHEGLHNHHTEKSLSHSPGK light: not shown |

From patent publication US20150203577A1 (Chugai, published 2015)
